The values that follow come from paper PMC3792862, “Structure of UreG/UreF/UreH Complex Reveals How Urease Accessory Proteins Facilitate Maturation of Helicobacter pylori Urease” (PLoS Biology, 2013).

Sequences and labels used below:
B1: UreF/UreH complex (complex)
chain 1: MDKGKSVKSTEKSVGMPPKTPKTDNNAHVDNEFLILQVNDAVFPIGSYTHSFGLETYIQQKKVTNKESALEYLKANLSSQFLYTEMLSLKLTYESALQQDLKKILGVEEVIMLSTSPMELRLANQKLGNRFIKTLQAMNELDMGEFFNAYAQKTKDPTHATSYGVFAASLGIELKKALRHYLYAQTSNMVINCVKSVPLSQNDGQKILLSLQSPFNQLIEKTLELDESHLCTASVQNDIKAMQHESLYSRLYMS
chain 2: MNTYAQESKLRLKTKIGADGRCVIEDNFFTPPFKLMAPFYPKDDLAEIMLLAVSPGMMRGDAQDVQLNIGPNCKLRITSQSFEKIHNTEDGFASRDMHIVVGENAFLDFAPFPLIPFENAHFKGNTTISLRSSSQLLYSEIIVAGRVARNELFKFNRLHTKISILQDEKPIYYDNTILDPKTTDLNNMCMFDGYTHYLNLVLVNCPIELSGVRECIEESEGVDGAVSETASSHLCVKALAKGSEPLLHLREKIARLVTQTTTQKV
notes: UreF, urease accessory protein of Helicobacter pylori; UreH, urease accessory protein of Helicobacter pylori (ortholog of UreD); also called (UreF/UreH)2; wild-type UreF/UreH complex; copies: 2 + 2
B2: UreF (natural protein)
chain: MDKGKSVKSTEKSVGMPPKTPKTDNNAHVDNEFLILQVNDAVFPIGSYTHSFGLETYIQQKKVTNKESALEYLKANLSSQFLYTEMLSLKLTYESALQQDLKKILGVEEVIMLSTSPMELRLANQKLGNRFIKTLQAMNELDMGEFFNAYAQKTKDPTHATSYGVFAASLGIELKKALRHYLYAQTSNMVINCVKSVPLSQNDGQKILLSLQSPFNQLIEKTLELDESHLCTASVQNDIKAMQHESLYSRLYMS
notes: UreF, urease accessory protein of Helicobacter pylori; The UreF chain of m6, for the rows of two chains that touch; also called UreF protomer; UreF chain A

Series [1] deals with the molecule itself. The experiment in a line: SEC-MALS; SEC/SLS; 40 µM UreG/UreF/UreH complex pre-incubated with 0.5 mM nickel and 1 mM GTP (2 mM magnesium sulfate); Superdex 200, phosphate-buffered saline; peaks analysed by SDS-PAGE. (Size exclusion chromatography separates by hydrodynamic size, large species first.)
The target in series [2] is T1, UreH (Helicobacter pylori, UniProt Q09067 1-265).
T1 construct: UreH, urease accessory protein of Helicobacter pylori; The UreH chain of m6 to m9; also called UreH (ortholog of UreD)
T1 sequence: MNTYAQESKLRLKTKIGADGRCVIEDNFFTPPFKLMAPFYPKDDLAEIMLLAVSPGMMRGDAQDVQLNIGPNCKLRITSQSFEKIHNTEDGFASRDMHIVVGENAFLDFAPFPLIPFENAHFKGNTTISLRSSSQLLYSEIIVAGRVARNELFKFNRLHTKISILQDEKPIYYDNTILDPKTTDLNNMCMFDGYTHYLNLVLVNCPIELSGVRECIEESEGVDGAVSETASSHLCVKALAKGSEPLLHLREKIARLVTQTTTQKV
The experiment in a line: crystal structure; UreG/UreF/UreH complex with 5 mM GDP, 10 mM magnesium sulfate, 5 mM aluminum fluoride; 1.5 M ammonium sulfate, 100 mM sodium acetate pH 5.0, 16°C; GDP-bound state, 2.35 Å. To be noted: both partners purified.

Series [3] concerns the molecule itself. Described as above.
Series [4] concerns the target B2. The description is as above. To be noted: both partners purified.
Series [5] deals with B1. The series is described as above. To be noted: both partners purified.
Series [6] addresses T2, HisGST-UreF/UreH complex (Helicobacter pylori, UniProt Q09065 1-254; Q09067 1-265).
T2 construct: UreF, urease accessory protein of Helicobacter pylori; UreH, urease accessory protein of Helicobacter pylori; also called wild-type HisGST-UreF (with UreH)
T2 sequence 1: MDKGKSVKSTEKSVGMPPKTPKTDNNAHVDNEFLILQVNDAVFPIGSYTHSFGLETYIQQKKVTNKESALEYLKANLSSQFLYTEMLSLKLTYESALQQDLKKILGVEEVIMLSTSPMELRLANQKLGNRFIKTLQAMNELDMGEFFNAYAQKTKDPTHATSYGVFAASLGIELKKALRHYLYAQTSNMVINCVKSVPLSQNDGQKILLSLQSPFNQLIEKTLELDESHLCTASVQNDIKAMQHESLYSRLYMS
T2 sequence 2: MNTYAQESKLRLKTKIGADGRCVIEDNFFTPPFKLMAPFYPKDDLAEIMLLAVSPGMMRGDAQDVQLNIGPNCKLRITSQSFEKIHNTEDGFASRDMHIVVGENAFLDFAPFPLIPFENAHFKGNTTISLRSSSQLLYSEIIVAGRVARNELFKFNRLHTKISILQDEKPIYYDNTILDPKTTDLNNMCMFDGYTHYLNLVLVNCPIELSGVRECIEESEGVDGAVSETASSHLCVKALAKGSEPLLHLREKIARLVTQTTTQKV
The experiment in a line: pull-down; purified GST-UreF/UreH and excess UreG on GST SpinTrap, 30 min at 4°C; immobilised complex incubated with 1 mM GTP and 2 mM magnesium sulfate, washed with buffer C, eluted with glutathione; SDS-PAGE of wash and eluate. The following applies: both partners purified.

The stoichiometry N is a count of units in the complex or per binding partner. On to B1, for which the “stoichiometry N” value in series [1] was 2.
For B2, the binding result in series [2] and in series [3] was “binds” each time.

B3: UreG (natural protein)
chain: MVKIGVCGPVGSGKTALIEALTRHMSKDYDMAVITNDIYTKEDAEFMCKNSVMPRERIIGVETGGCPHTAIREDASMNLEAVEEMHGRFPNLELLLIESGGDNLSATFNPELADFTIFVIDVAEGDKIPRKGGPGITRSDLLVINKIDLAPYVGADLKVMERDSKKMRGEKPFIFTNIRAKEGLDDVIAWIKRNALLED
notes: UreG, urease accessory protein (SIMIBI class GTPase) of Helicobacter pylori; Monomer in solution unless nickel and GTP (or free zinc) are present; two copies in the crystal of the UreG/UreF/UreH complex; also called apo-UreG; wild-type UreG; source: E. coli, purified (HisTrap, tag cleaved with SENP1C, second HisTrap, Superdex 75; dialysed with 5 mM EDTA)
As for B3, the “stoichiometry N” value in series [1] came to 2. Besides, the binding result in series [4], in series [5] and in series [6] was “binds” each time.
